Reference: paper PMC5053343, “Improvement of free fatty acid production using a mutant acyl-CoA thioesterase I with high specific activity in Escherichia coli” (Biotechnology for Biofuels, 2016)
Numbering of substitutions follows the chain as printed. In names and notes the source's numbering stands.

Substrate: CCCCCCCCCCCCCCCC(=O)SCCNC(=O)CCNC(=O)[C@H](O)C(C)(C)COP(=O)(O)OP(=O)(O)OC[C@H]1O[C@@H](n2cnc3c(N)ncnc32)[C@H](O)[C@@H]1OP(=O)(O)O
Test: purified protein
Assay type: biochemical, Escherichia coli
Conditions: 50 mM potassium phosphate pH 7.0, 80 ug/mL BSA, 0.1 mM DTNB, 3.1 x 10^-5 mM enzyme, 0-24 uM palmitoyl-CoA

B1: 'TesA (leader sequence-deleted acyl-CoA thioesterase I) (Escherichia coli K-12) (protein)
chain: ADTLLILGDSLSAGYRMSASAAWPALLNDKWQSKTSVVNASISGDTSQQGLARLPALLKQHQPRWVLVELGGNDGLRGFQPQQTEQTLRQILQDVKAANAEPLLMQIRLPANYGRRYNEAFSAIYPKLAKEFDVPLLPFFMEEVYLKPQWMQDDGIHPNRDAQPFIADWMAKQLQPLVNHDS
notes: signal peptide removed (leaderless), C-terminal (His)6 tag from pET28a (NcoI/XhoI), kept; expressed in E. coli BL21(DE3), Ni-NTA purified
- Km: 6.69 µM
- kcat: 20.75 s⁻¹

B2: 'TesA (leader sequence-deleted acyl-CoA thioesterase I) (Escherichia coli K-12; R90C) (protein)
chain: B1 chain with R64C
notes: as for B1
- Km: 4.00 µM
- kcat: 27.12 s⁻¹
